The target in assay [1] is transmembrane CX3CL1, expressed in LOX melanoma cells (human) (UniProt P78423). Nature of the assay: cross-linking; isolated membranes of tm-chemokine overexpressing LOX cells (1.5 mg membrane protein, 0.2 M triethanolamine-hydrochloride pH 8.0) with 2 nM recombinant s-chemokine over night at 4°C; 1% paraformaldehyde 1 hr at room temperature; SDS-PAGE and Western blot. (In western blotting, separated proteins are transferred to a membrane and probed.)

In assay [2] the target is T1, transmembrane CXCL16 with a hemagglutinin tag, expressed in LOX melanoma cells (human, UniProt Q9H2A7 30-254).
T1 construct: CXCL16, transmembrane form; expression vector CXCL16-HA in pcDNA3.1 as described in Abel et al., 2004; called full-length tm-chemokine in the results; also called tm-CXCL16; CXCL16-HA; source: LOX melanoma cells, transfected (pcDNA3.1), on cells or in isolated membranes
T1 sequence (looked up): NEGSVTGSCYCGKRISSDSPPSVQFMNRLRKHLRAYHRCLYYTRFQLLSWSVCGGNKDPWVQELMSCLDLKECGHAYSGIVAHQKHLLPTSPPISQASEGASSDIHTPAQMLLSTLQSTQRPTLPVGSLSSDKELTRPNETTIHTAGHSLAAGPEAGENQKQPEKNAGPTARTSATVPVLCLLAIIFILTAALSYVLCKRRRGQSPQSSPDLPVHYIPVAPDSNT
The assay is described as above. To be noted: one partner purified.

Sequence of transmembrane CX3CL1, expressed in LOX melanoma cells (human) (P78423 25-397): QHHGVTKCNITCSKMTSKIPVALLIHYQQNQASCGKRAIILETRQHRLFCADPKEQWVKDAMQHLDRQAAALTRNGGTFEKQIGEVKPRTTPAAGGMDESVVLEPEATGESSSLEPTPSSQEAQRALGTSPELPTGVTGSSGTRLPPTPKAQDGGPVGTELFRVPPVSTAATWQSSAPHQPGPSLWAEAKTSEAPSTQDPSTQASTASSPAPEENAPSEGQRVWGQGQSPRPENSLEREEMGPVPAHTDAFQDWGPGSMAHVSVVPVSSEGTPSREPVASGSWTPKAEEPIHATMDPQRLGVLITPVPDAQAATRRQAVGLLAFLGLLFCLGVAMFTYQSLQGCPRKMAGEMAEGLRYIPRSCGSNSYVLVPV

As for “soluble CX3CL1 (recombinant human chemokine) (ligand)”, in assay [1], the stoichiometry N (commonly a count of units in the complex or per binding partner) lay in the range of 1 to 2.

B1: soluble CXCL16 (recombinant human chemokine) (ligand)
chain: NEGSVTGSCYCGKRISSDSPPSVQFMNRLRKHLRAYHRCLYYTRFQLLSWSVCGGNKDPWVQELMSCLDLKECGHAYSGIVAHQKHLLP
modifications: Cy3 (monoreactive NHS ester) for light microscopy; biotin (One-step antibody biotinylation kit) for flow cytometry; adsorbed to 5 nm gold particles for electron microscopy; no label named for cross-linking and stimulation
Take B1: the “stoichiometry N” value in assay [2] is 1 to 2.
